Where no end group is shown, it is not given here.

Consider two molecules from patent EP1852441B1 (The Burnham Institute, dated 2004).

For one experiment, the target named is T1, EphB4 Fc.
T1 construct: also called EpbB4
Nature of the experiment: immobilized biotinylated peptide capturing Eph receptor Fc.

Experiment [1] has as its target T2, histidine-tagged mouse EphA2 Fc fusion protein (mouse, UniProt Q03145 26-535, limits assumed).
T2 construct: Bought; also called Eph2 Fc; not shown: Fc region; histidine tag
Nature of the experiment: SPR (BIAcore 3000), EphA2 Fc coupled to the chip, equilibrium binding. A general note: Surface plasmon resonance follows binding to a sensor surface in real time, without labels.

T2 sequence (Q03145 26-535 limits assumed): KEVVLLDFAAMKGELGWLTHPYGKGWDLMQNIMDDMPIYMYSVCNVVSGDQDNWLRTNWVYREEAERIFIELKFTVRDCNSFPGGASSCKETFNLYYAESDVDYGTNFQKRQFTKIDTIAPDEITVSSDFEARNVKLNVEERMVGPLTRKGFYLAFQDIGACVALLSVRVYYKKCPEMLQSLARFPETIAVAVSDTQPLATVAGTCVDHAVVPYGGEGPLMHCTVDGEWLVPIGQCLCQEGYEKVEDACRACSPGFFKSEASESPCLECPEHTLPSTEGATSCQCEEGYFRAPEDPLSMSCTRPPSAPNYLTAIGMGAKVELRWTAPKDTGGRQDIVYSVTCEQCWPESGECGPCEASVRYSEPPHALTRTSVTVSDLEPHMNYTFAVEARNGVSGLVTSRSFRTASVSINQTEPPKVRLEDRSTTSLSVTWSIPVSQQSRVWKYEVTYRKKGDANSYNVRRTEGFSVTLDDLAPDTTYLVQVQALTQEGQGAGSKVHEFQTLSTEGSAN
T1 sequence (P54761 16-539): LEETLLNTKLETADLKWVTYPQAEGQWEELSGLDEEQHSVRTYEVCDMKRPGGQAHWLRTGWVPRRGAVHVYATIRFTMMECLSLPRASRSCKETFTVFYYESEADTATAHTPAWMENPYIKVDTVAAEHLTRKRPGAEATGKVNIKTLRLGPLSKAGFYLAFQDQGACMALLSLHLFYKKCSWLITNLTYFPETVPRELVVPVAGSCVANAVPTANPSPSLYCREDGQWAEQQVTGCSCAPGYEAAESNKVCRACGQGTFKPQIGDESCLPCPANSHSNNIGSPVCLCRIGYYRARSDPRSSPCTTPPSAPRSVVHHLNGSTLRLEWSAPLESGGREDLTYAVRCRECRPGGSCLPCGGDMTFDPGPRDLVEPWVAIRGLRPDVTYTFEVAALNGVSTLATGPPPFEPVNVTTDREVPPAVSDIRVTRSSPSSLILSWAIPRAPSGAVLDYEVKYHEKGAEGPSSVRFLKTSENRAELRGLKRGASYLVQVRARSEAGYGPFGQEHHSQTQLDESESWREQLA

On to DALNDWLLFRPWGSGSK (also: biotinylated (position not given here)) [synthetic DAL peptide (DALNDWLLFRPW)], for which the “fold more EphB4 bound than other EphB family receptors” value with EphB4 Fc is 4 fold.

The Kd is the equilibrium constant for the complex coming apart. The low end stands for a tighter complex, the high end for a looser complex. In experiment [1], SWLAYPGAVSYRGSGSK (also: biotinylated (position not given here)) [synthetic SWL peptide (SWLAYPGAVSYR)] gave a Kd of 678 nM.
